Measurements from article PMC9527358, “Oligomeric state of the aspartate:alanine transporter from Tetragenococcus halophilus” (Journal of Biochemistry, 2022).

Experiments:
[1] = target: AspT L60C mutant (three endogenous Cys replaced with alanine, then leucine 60 replaced with Cys) (Tetragenococcus halophilus) (UniProt Q8L3K8); assay: cross-linking; spontaneous inter-molecular disulphide; purified protein (0.5 ug) in SDS sample buffer without 2-mercaptoethanol (non-reducing) or with 5% (reducing), 37°C 30 min; SDS-PAGE (Coomassie) and western blot with a His-tag antibody
[2] = target: the molecule itself; assay: SEC-MALS; purified AspT in DDM (2.4 mg/ml, dialysed); Superdex 200 Increase 10/300 GL; 20 mM HEPES-NaOH pH 7.0, 500 mM NaCl, 200 mM Asp-KOH, 0.01% DDM, 20% glycerol; 0.8 ml/min; MALS, RI and UV detectors

| stoichiometry N [1] | Molecule | stoichiometry N [2] |
| --- | --- | --- |
| 2 | AspT L60C mutant (three endogenous Cys replaced with alanine, then leucine 60 replaced with Cys) (from UniProt Q8L3K8 1-543) (natural protein) |  |
|  | aspartate:alanine antiporter (AspT) of Tetragenococcus halophilus, wild type, histidine-tagged (natural protein, UniProt Q8L3K8 1-543, looked up, aspartate:alanine antiporter AspT, Tetragenococcus halophilus, 543 amino-acid residues (57.2 kDa); expressed from the asp operon in pTrc99A (pTrcAspD/T-His); also called AspT WT; WT; source: Ni Sepharose Excel and SEC for the comparison with L60C; not shown: His6, internal (in loop 5), kept) MNAIGNFLVGTPVFTIFICLALGYLLGKLKIGSFTLGATVGVLIVALLIGQLGVFPRDTLLGDIFFDFFMFAIGYRVGPSFISSMKKFGAKIVYATLIFLVSAFIVAYACFKMFHIGPGIAAGIIAGGLTQSAVIGSSLETISKLPISDHLKTLYSNQIPIVYTLTYVFGTIGVLIFLRDIMPKLMHIDLKKQAVKTAKELDMIPVPVIVASTHFYTINDGSSLIGQTLGTVNTKFAKGLVAAGLNDSADMASVINAGDVLAISGGIDEIGRAVQEFNLLEVTGKTKAYVSKQVVLKKNFSADVLKNAQDKGVLVATLAGDVMDPAQFSTLKPAESVTLVGQKDAVSEVQSQLGRLRAAENIINYSWFALGIALSAALGIVGTKVSGVPIALGGGTASLIVGLVQSIYRDKHAHMDTIPDSLLEFFQSIGLNLFIATVGLSAAKTFISAIQSMGISVLLIGAVISILPHIITFVICYYLMKMEPISIIGAQTGADTLSAALNDVSERVGSDASPFFAAAVAPAYAIGNIFLTLMGPIFIVLLS | 2 |
